Test results taken from the supplement of paper PMC9112550, “Optimization of the antimicrobial peptide Bac7 by deep mutational scanning” (BMC Biology, 2022).

These sequences were tested on Escherichia coli TOP10 (assay: shrunken log2 fold change of peptide-encoding DNA abundance (4.5 h post-induction vs induction); higher = less antimicrobial activity (less host growth inhibition)). Settings: time post-induction: 4.5 h; library: site-saturation at positions 5, 18, 19, 20.
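Note: peptides expressed intracellularly from a pBAD plasmid library in pooled LB shake-flask culture, induced with 0.3% L-arabinose, DNA abundance read by NGS, three biological replicates, DESeq2 with apeglm shrinkage.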

Sequence | shrunken log2 fold change
RRIRRRPPRLPRPRPRPFKMPRP | -0.124
RRIRRRPPRLPRPRPRPFLRPRP | 0.382
RRIRRRPPRLPRPRPRPFPDPRP | 0.255
RRIRRRPPRLPRPRPRPFPMPRP | 0.0657
RRIRRRPPRLPRPRPRPFQLPRP | 0.0918
RRIRRRPPRLPRPRPRPFSFPRP | -0.0665
RRIRRRPPRLPRPRPRPFWAPRP | 0.0811
RRIRRRPPRLPRPRPRPFWMPRP | 0.0323
RRIRRRPPRLPRPRPRPFWNPRP | 0.0866
RRIRRRPPRLPRPRPRPFWWPRP | 0.528
RRIRRRPPRLPRPRPRPFYNPRP | -0.139
RRIRRRPPRLPRPRPRPGALPRP | 0.502
RRIRRRPPRLPRPRPRPGAWPRP | -9.3e-05
RRIRRRPPRLPRPRPRPGCAPRP | 0.73
RRIRRRPPRLPRPRPRPGCHPRP | 0.119
RRIRRRPPRLPRPRPRPGCMPRP | 0.835
RRIRRRPPRLPRPRPRPGCSPRP | 0.344
RRIRRRPPRLPRPRPRPGDIPRP | 0.0886
RRIRRRPPRLPRPRPRPGDRPRP | 0.265
RRIRRRPPRLPRPRPRPGDSPRP | 0.269
RRIRRRPPRLPRPRPRPGEDPRP | 0.00579
RRIRRRPPRLPRPRPRPGELPRP | 0.12
RRIRRRPPRLPRPRPRPGEYPRP | 0.264
RRIRRRPPRLPRPRPRPGFDPRP | 0.289
RRIRRRPPRLPRPRPRPGFQPRP | 0.301

Sequence | shrunken log2 fold change
RRIRRRPPRLPRPRPRPGFRPRP | 0.331
RRIRRRPPRLPRPRPRPGHCPRP | 0.0653
RRIRRRPPRLPRPRPRPGHLPRP | 0.067
RRIRRRPPRLPRPRPRPGHPPRP | 0.237
RRIRRRPPRLPRPRPRPGHSPRP | -0.0814
RRIRRRPPRLPRPRPRPGHTPRP | 0.274
RRIRRRPPRLPRPRPRPGHYPRP | -0.0611
RRIRRRPPRLPRPRPRPGIHPRP | 0.252
RRIRRRPPRLPRPRPRPGLEPRP | 0.472
RRIRRRPPRLPRPRPRPGMAPRP | 0.339
RRIRRRPPRLPRPRPRPGNEPRP | -0.301
RRIRRRPPRLPRPRPRPGNLPRP | 0.0367
RRIRRRPPRLPRPRPRPGPNPRP | 0.251
RRIRRRPPRLPRPRPRPGRCPRP | 0.27
RRIRRRPPRLPRPRPRPGSCPRP | 0.152
RRIRRRPPRLPRPRPRPGSLPRP | -0.00238
RRIRRRPPRLPRPRPRPGSWPRP | 0.189
RRIRRRPPRLPRPRPRPGTVPRP | 0.0962
RRIRRRPPRLPRPRPRPGVAPRP | 0.858
RRIRRRPPRLPRPRPRPGVCPRP | 0.369
RRIRRRPPRLPRPRPRPGVFPRP | 0.278
RRIRRRPPRLPRPRPRPGWGPRP | 0.497
RRIRRRPPRLPRPRPRPGYCPRP | -0.0631
RRIRRRPPRLPRPRPRPGYIPRP | -0.177
RRIRRRPPRLPRPRPRPGYPPRP | 0.00327

Sequence | shrunken log2 fold change
RRIRRRPPRLPRPRPRPHAGPRP | 0.425
RRIRRRPPRLPRPRPRPHDAPRP | 0.197
RRIRRRPPRLPRPRPRPHELPRP | 0.429
RRIRRRPPRLPRPRPRPHETPRP | 1.07
RRIRRRPPRLPRPRPRPHFRPRP | -0.0205
RRIRRRPPRLPRPRPRPHFSPRP | -0.187
RRIRRRPPRLPRPRPRPHFYPRP | 0.0714
RRIRRRPPRLPRPRPRPHGYPRP | 0.0169
RRIRRRPPRLPRPRPRPHHRPRP | 0.0911
RRIRRRPPRLPRPRPRPHIVPRP | -0.0515
RRIRRRPPRLPRPRPRPHKKPRP | 0.228
RRIRRRPPRLPRPRPRPHKMPRP | -0.167
RRIRRRPPRLPRPRPRPHMYPRP | -0.272
RRIRRRPPRLPRPRPRPHNLPRP | -0.176
RRIRRRPPRLPRPRPRPHPDPRP | 0.474
RRIRRRPPRLPRPRPRPHPNPRP | 0.246
RRIRRRPPRLPRPRPRPHQHPRP | 0.0389
RRIRRRPPRLPRPRPRPHRCPRP | 0.0585
RRIRRRPPRLPRPRPRPHRYPRP | -0.0438
RRIRRRPPRLPRPRPRPHSWPRP | 0.333
RRIRRRPPRLPRPRPRPHTVPRP | 0.0423
RRIRRRPPRLPRPRPRPHYPPRP | 0.158
RRIRRRPPRLPRPRPRPIAPPRP | 0.702
RRIRRRPPRLPRPRPRPIAWPRP | 0.0624
RRIRRRPPRLPRPRPRPICGPRP | -0.0231

Sequence | shrunken log2 fold change
RRIRRRPPRLPRPRPRPIDTPRP | -0.307
RRIRRRPPRLPRPRPRPIDVPRP | -0.00284
RRIRRRPPRLPRPRPRPIDWPRP | 0.122
RRIRRRPPRLPRPRPRPIEMPRP | 0.0754
RRIRRRPPRLPRPRPRPIFPPRP | 0.69
RRIRRRPPRLPRPRPRPIFSPRP | 1.06
RRIRRRPPRLPRPRPRPIGIPRP | -0.088
RRIRRRPPRLPRPRPRPIHEPRP | 0.086
RRIRRRPPRLPRPRPRPIHKPRP | 0.27
RRIRRRPPRLPRPRPRPIIVPRP | 0.0931
RRIRRRPPRLPRPRPRPIKCPRP | -0.17
RRIRRRPPRLPRPRPRPIKMPRP | -0.0923
RRIRRRPPRLPRPRPRPILEPRP | 0.0696
RRIRRRPPRLPRPRPRPIMIPRP | -0.105
RRIRRRPPRLPRPRPRPIMVPRP | -0.371
RRIRRRPPRLPRPRPRPIPEPRP | 0.12
RRIRRRPPRLPRPRPRPIPLPRP | 0.194
RRIRRRPPRLPRPRPRPIQIPRP | -0.00118
RRIRRRPPRLPRPRPRPIREPRP | 0.208
RRIRRRPPRLPRPRPRPIYFPRP | 0.124
RRIRRRPPRLPRPRPRPIYMPRP | -0.138
RRIRRRPPRLPRPRPRPIYSPRP | -0.159
RRIRRRPPRLPRPRPRPKAQPRP | -0.00801
RRIRRRPPRLPRPRPRPKGHPRP | 0.127
RRIRRRPPRLPRPRPRPKGLPRP | 0.238

Sequence | shrunken log2 fold change
RRIRRRPPRLPRPRPRPKGRPRP | 0.135
RRIRRRPPRLPRPRPRPKHLPRP | 0.0709
RRIRRRPPRLPRPRPRPKHNPRP | 0.396
RRIRRRPPRLPRPRPRPKKCPRP | -0.325
RRIRRRPPRLPRPRPRPKKHPRP | 0.197
RRIRRRPPRLPRPRPRPKLDPRP | 0.523
RRIRRRPPRLPRPRPRPKMSPRP | 0.274
RRIRRRPPRLPRPRPRPKPDPRP | 0.493
RRIRRRPPRLPRPRPRPKQAPRP | 0.908
RRIRRRPPRLPRPRPRPKQCPRP | 0.0754
RRIRRRPPRLPRPRPRPKRKPRP | 0.099
RRIRRRPPRLPRPRPRPKRQPRP | 0.584
RRIRRRPPRLPRPRPRPKTAPRP | 0.707
RRIRRRPPRLPRPRPRPKTIPRP | 0.0447
RRIRRRPPRLPRPRPRPKVGPRP | -0.119
RRIRRRPPRLPRPRPRPKVRPRP | 0.111
RRIRRRPPRLPRPRPRPKWDPRP | 0.139
RRIRRRPPRLPRPRPRPKYDPRP | -0.466
RRIRRRPPRLPRPRPRPKYKPRP | -0.148
RRIRRRPPRLPRPRPRPLAGPRP | 0.477
RRIRRRPPRLPRPRPRPLCEPRP | 0.443
RRIRRRPPRLPRPRPRPLDSPRP | -0.106
RRIRRRPPRLPRPRPRPLESPRP | 0.0173
RRIRRRPPRLPRPRPRPLFAPRP | 0.755
RRIRRRPPRLPRPRPRPLFHPRP | 0.0745

Sequence | shrunken log2 fold change
RRIRRRPPRLPRPRPRPLFQPRP | 0.246
RRIRRRPPRLPRPRPRPLFYPRP | -0.248
RRIRRRPPRLPRPRPRPLINPRP | -0.0185
RRIRRRPPRLPRPRPRPLISPRP | -0.111
RRIRRRPPRLPRPRPRPLITPRP | -0.0767
RRIRRRPPRLPRPRPRPLKYPRP | 0.0102
RRIRRRPPRLPRPRPRPLLDPRP | 0.449
RRIRRRPPRLPRPRPRPLMEPRP | -0.0263
RRIRRRPPRLPRPRPRPLNFPRP | -0.115
RRIRRRPPRLPRPRPRPLNTPRP | -0.244
RRIRRRPPRLPRPRPRPLNWPRP | 0.296
RRIRRRPPRLPRPRPRPLPGPRP | 0.59
RRIRRRPPRLPRPRPRPLPWPRP | 0.057
RRIRRRPPRLPRPRPRPLQCPRP | 0.18
RRIRRRPPRLPRPRPRPLQNPRP | 0.045
RRIRRRPPRLPRPRPRPLRQPRP | 1.04
RRIRRRPPRLPRPRPRPLSTPRP | 0.021
RRIRRRPPRLPRPRPRPLSYPRP | -0.0226
RRIRRRPPRLPRPRPRPLTAPRP | 0.337
RRIRRRPPRLPRPRPRPLTEPRP | 0.793
RRIRRRPPRLPRPRPRPLTVPRP | 0.0344
RRIRRRPPRLPRPRPRPLVVPRP | 0.312
RRIRRRPPRLPRPRPRPLWAPRP | 0.501
RRIRRRPPRLPRPRPRPLWIPRP | -0.22
RRIRRRPPRLPRPRPRPLWKPRP | 0.115
